system: T1, NC(=O)NC(C(=O)O)c1ccc(O)cc1; experiment: HPLC of D-HPG formed, double reciprocal plot; assay type: biochemical, Agrobacterium sp. KNK712; conditions: 50 mM Tris-HCl pH 7.5, 65 °C, 0.1-10.0 mM CpHPG
T1 construct: pET-28a(+)-Case, N- and C-terminal His6 tags, expressed in E. coli BL21(DE3), Ni-NTA purified, about 37 kDa
From the text: HPLC of D-HPG formed, double reciprocal plot on DCase (N-carbamoyl-D-amino acid amidohydrolase, EC 3.5.1.77; N-carbamoyl hydrolase)

Row | Substance | Km [µM] | kcat [s⁻¹] | kcat/Km [M⁻¹ s⁻¹]
1 | DCase (N-carbamoyl-D-amino acid amidohydrolase, EC 3.5.1.77; N-carbamoyl hydrolase) (Agrobacterium sp. KNK712; Q4C) | 2440 ± 460 | 12.6 ± 0.371 | 5150 ± 265
2 | DCase (N-carbamoyl-D-amino acid amidohydrolase, EC 3.5.1.77; N-carbamoyl hydrolase) (Agrobacterium sp. KNK712; A302C/Q4C/T212V) | 2190 ± 260 | 32.9 ± 0.658 | 15000 ± 1200
3 | DCase (N-carbamoyl-D-amino acid amidohydrolase, EC 3.5.1.77; N-carbamoyl hydrolase) (Agrobacterium sp. KNK712; A302C/Q4C/T212G) | 2340 ± 260 | 36.7 ± 0.658 | 15700 ± 939
4 | DCase (N-carbamoyl-D-amino acid amidohydrolase, EC 3.5.1.77; N-carbamoyl hydrolase) (Agrobacterium sp. KNK712; A302C/Q4C) | 2560 ± 150 | 29.2 ± 0.733 | 11400 ± 516
5 | DCase (N-carbamoyl-D-amino acid amidohydrolase, EC 3.5.1.77; N-carbamoyl hydrolase) (Agrobacterium sp. KNK712; A302C/Q4C/T212A) | 2380 ± 620 | 30.4 ± 0.703 | 12800 ± 572
6 | DCase (N-carbamoyl-D-amino acid amidohydrolase, EC 3.5.1.77; N-carbamoyl hydrolase) (Agrobacterium sp. KNK712; A302C/Q4C/T212S) | 2120 ± 260 | 38.1 ± 0.658 | 18000 ± 722
